The test has as its target D04-his tagged VHH (humanized D04). Briefly: Octet (BLI), anti-idiotype VHH-Fc vs his-tagged VHH; table title prints B11-his, paragraph 353 ties these values to D04. Background: BLI is a label-free optical method that tracks binding on a fibre tip over time.

The source of these data is patent US20220193133A1.

B1: AMD71 (huB11_CNTY3+4_A02 anti-idiotype VHH IgG1-Fc fusion) (Fc fusion, not shown: a dimerising Fc or GST)
chain: EVQLLESGGGLVQPGGSLRLSCAASGRTYTGSAMGWYRQAPGKERELVSAISTGGETYYADSVKGRFTISRDNSKNTLYLQMNSLRAEDTAVYYCAAGYVGLPYTYRPATSRRGYTYWGQGTQVTVSS
By koff is commonly meant the first-order rate constant of dissociation. For orientation: kon means a measure of how fast the partners come together. A low value points to slow association. On to B1, for which the Response was 0.0062, the koff was less than 1e-07 s⁻¹ and the kon worked out at 2160 M⁻¹ s⁻¹.
